Positions count from the first letter of the chain named.
Key:
[1] = target: T1, recombinant biotinylated CD71 extracellular domain (Sino Biologics) with an N-terminal 6His tag (human, UniProt P02786 89-760, biotinylated (sites not given)); assay: screening ELISA, ratio
T1 construct: extracellular domain; also called hCD71; huCD71

[2] = target: T1, recombinant biotinylated CD71 …; assay: screening ELISA

T1 sequence (P02786 other isoform, or with tags, fused parts or gaps): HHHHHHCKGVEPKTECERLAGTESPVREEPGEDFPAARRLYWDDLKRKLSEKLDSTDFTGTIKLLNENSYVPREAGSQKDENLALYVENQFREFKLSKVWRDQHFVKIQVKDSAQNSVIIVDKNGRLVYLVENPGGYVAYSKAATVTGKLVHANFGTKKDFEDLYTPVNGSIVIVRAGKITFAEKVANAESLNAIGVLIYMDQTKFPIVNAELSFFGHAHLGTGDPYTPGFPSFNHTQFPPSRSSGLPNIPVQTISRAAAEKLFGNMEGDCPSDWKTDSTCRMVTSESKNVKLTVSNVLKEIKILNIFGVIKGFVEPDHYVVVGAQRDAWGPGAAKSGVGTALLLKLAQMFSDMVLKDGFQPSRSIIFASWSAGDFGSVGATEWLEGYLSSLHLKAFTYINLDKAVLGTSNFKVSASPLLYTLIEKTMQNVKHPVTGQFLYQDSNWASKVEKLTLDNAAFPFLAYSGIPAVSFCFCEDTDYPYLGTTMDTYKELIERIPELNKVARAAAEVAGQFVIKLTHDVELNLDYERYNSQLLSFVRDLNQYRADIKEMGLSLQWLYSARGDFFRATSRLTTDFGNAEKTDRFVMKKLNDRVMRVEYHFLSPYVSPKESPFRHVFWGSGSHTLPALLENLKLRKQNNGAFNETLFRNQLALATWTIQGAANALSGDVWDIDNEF

B1: SEQ ID NO 218 (designed binder)
chain: MLPAPKNLVVSRVTEDSARLSWTAPDAAFDSFTILYYEMVGEGEAIVLTVPGSERSYDLTGPKPGTEYWVDIYGVKGGGWSRPLSAIFTT
notes: FN3 domain
- hCD71:HSA [1]: 71
- hCD71 [2]: 2.39e+06

B2: SEQ ID NO 253 (designed binder)
chain: B1 chain with L35E, Y37W, M39T, V40I, E42G, P62L, W69Y, D71G, G79W
notes: FN3 domain
- hCD71:HSA [1]: 1140
- hCD71 [2]: 2.8e+06

B3: SEQ ID NO 225 (designed binder)
chain: B1 chain with T33K, L35E, Y37F, M39Y, E42Y, P62L, W69Y, D71A, G79W, W80Y
notes: FN3 domain
- hCD71:HSA [1]: 210
- hCD71 [2]: 2.96e+06

B4: SEQ ID NO 277 (designed binder)
chain: B1 chain with T33W, L35N, M39G, V40I, P62L, W69Y, Y73S, G79S, W80Y, R82L
notes: FN3 domain
- hCD71:HSA [1]: 598
- hCD71 [2]: 3.11e+06

B5: SEQ ID NO 299 (designed binder)
chain: B1 chain with T33L, L35E, Y37W, M39S, E42Y, P62L, D71G, G79Y, W80Y
notes: FN3 domain
- hCD71:HSA [1]: 1940
- hCD71 [2]: 4.27e+06

B6: SEQ ID NO 234 (designed binder)
chain: MLPAPKNLVVSRVTEDSARLSWTAPDAAFDSFYITYWETWDYGEAIVLTVPGSERSYDLTGLKPGTEYKVPITGVKGGGPSVPLSAIFTT
notes: FN3 domain
- hCD71:HSA [1]: 94
- hCD71 [2]: 680000

B7: SEQ ID NO 274 (designed binder)
chain: MLPAPKNLVVSRVTEDSVRLSWTAPDAAFDSFAISYEEWWVHGEAIVLTVPGSERSYDLTGLKPGTEYSVVIPGVKGGLYSWTLSAISTT
notes: FN3 domain
- hCD71:HSA [1]: 44
- hCD71 [2]: 522000

B8: SEQ ID NO 281 (designed binder)
chain: MLPAPKNLVVSRVTEDSARLSWTAPDAAFDSFYIDYDEIHDWGEAIVLTVPGSERSYDLTGLKPGTEYAVQIGGVKGGSFSWTLSAIFTT
notes: FN3 domain
- hCD71:HSA [1]: 48
- hCD71 [2]: 1.07e+06

B9: SEQ ID NO 227 (designed binder)
chain: MLPAPKNLVVSRVTEDSARLSWTAPDAAFDSFRIRYLEWWNIGEAIVLTVPGSERSYDLTGLKPGTEYHVDIWGVKGGYSSYPLSAIFTT
notes: FN3 domain
- hCD71:HSA [1]: 1680
- hCD71 [2]: 3.85e+06

B10: SEQ ID NO 242 (designed binder)
chain: B9 chain with R33P, R35K, N41S, I42W, H69R, D71P, W73S, Y79G, S80M, Y82G
notes: FN3 domain
- hCD71:HSA [1]: 178
- hCD71 [2]: 872000

B11: SEQ ID NO 241 (designed binder)
chain: B9 chain with R33N, R35Y, L37Y, W40F, N41V, I42S, H69F, W73D, S80R, Y82R
notes: FN3 domain
- hCD71:HSA [1]: 1230
- hCD71 [2]: 2.7e+06

B12: SEQ ID NO 294 (designed binder)
chain: MLPAPKNLVVSRVTEDSARLSWTAPDAAFDSFSIIYSEWNVTGEAIVLTVPGSERSYDLTGLKPGTEYDVWIEGVKGGGMSKPLSAISTT
notes: FN3 domain
- hCD71:HSA [1]: 174
- hCD71 [2]: 1.44e+06

B13: SEQ ID NO 260 (designed binder)
chain: MLPAPKNLVVSRVTEDSARLSWTAPDAAFDSFNISYYEYFVHGEAIVLTVPGSERSYDLTGLKPGTEYYVIDGVKGGDPSEPLSAIFTT
notes: FN3 domain
- hCD71:HSA [1]: 90
- hCD71 [2]: 1.3e+06

B14: SEQ ID NO 231 (designed binder)
chain: MLPAPKNLVVSRVTEDSARLSWTAPDAAFDSFEIPYIETVALGEAIVLTVPGSERSYDLTGLKPGTEYYVEIYGVKGGSYSYPLSAISTT
notes: FN3 domain
- hCD71:HSA [1]: 86
- hCD71 [2]: 2.27e+06

B15: SEQ ID NO 269 (designed binder)
chain: MLPAPKNLVVSRVTEDSARLSWTAPDAAFDSFHINYAEVYTKGEAILLTVPGSERSYDLTGLKPGTEYEVYIPGVKGGPFSRPLNAQFTT
notes: FN3 domain
- hCD71:HSA [1]: 166
- hCD71 [2]: 690000

B16: SEQ ID NO 232 (designed binder)
chain: MLPAPKNLVVSRVTEDSARLSWTAPDAAFDSFTIAYDETLNLGEAIVLTVPGSERSYDLTGLKPGTEYIVGIFGVKGGTHSWPLSAIFTT
notes: FN3 domain
- hCD71:HSA [1]: 629
- hCD71 [2]: 1.7e+06

B17: SEQ ID NO 249 (designed binder)
chain: MLPAPKNLVVSRVTEDSARLSWTAPDAAFDSFSIDYFESVGFGEAIVLTVPGSERSYDLTGLKPGTEYDVQITGVKGGPHSLPLSAIFTT
notes: FN3 domain
- hCD71:HSA [1]: 148
- hCD71 [2]: 1.05e+06

B18: SEQ ID NO 229 (designed binder)
chain: MLPAPKNLVVSRVTEDSARLSWTAPDAAFDSFSIHYDEDWRRGEAIVLTVPGSERSYDLTGLKPGTEYLVEIPGVKGGKASYPLSAIFTT
notes: FN3 domain
- hCD71:HSA [1]: 154
- hCD71 [2]: 570000

B19: SEQ ID NO 292 (designed binder)
chain: MLPAPKNLVVSRVTEDSARLSWTAPDAAFDSFDIAYWELTPSGEAIELLVPGSERSYDLTGLKPGTEYRVDIIGVKGGFISEPLGATFTT
notes: FN3 domain
- hCD71:HSA [1]: 296
- hCD71 [2]: 2.62e+06

B20: SEQ ID NO 224 (designed binder)
chain: MLLAPKNLVVSRVTEDSARLSWTAPDAAFDSFRYLEQGLYGEAIVLTVPGSERSYDLTGLKPGTEYWVEIIGVKGGEYSTPLSAIFTT
notes: FN3 domain
- hCD71:HSA [1]: 122
- hCD71 [2]: 2.02e+06

B21: SEQ ID NO 290 (designed binder)
chain: B20 chain with L3P, R33F, G38A, L39W, Y40G, I71T, E77Y, Y78A, T80S
notes: FN3 domain
- hCD71:HSA [1]: 237
- hCD71 [2]: 2.81e+06

B22: SEQ ID NO 273 (designed binder)
chain: MLPAPKNLVVSRVTEDSARLSWTAPDAAFDSFTIFKDGEAIVLTVPGSERSYDLTGLKPGTEYYVYIYGVKGGYPSKPLSAIFTT
notes: FN3 domain
- hCD71:HSA [1]: 508
- hCD71 [2]: 4.65e+06

B23: SEQ ID NO 230 (designed binder)
chain: MLPAPKNLVVSRVTEDSARLSWTAPDAAFDSFQIRYPKRWISGEAIVLTVPGSERSYDLTGLKPGTEYEVVIRGVKGGEYSWPLSAIFTT
notes: FN3 domain
- hCD71:HSA [1]: 1050
- hCD71 [2]: 2e+06

B24: SEQ ID NO 301 (designed binder)
chain: MLPAPKNLVVSRVTEDSARLSWTAPDAAFDSFEIEYDEPYRGGEAIVLTVPGSERSYDLTSLKPGTEYPVSIGGVKGGITSDPLSAIFTT
notes: FN3 domain
- hCD71:HSA [1]: 55
- hCD71 [2]: 660000

B25: SEQ ID NO 286 (designed binder)
chain: MLPAPKNLVVSRVTEDSARLSWTAPDAAFDSFNIYYPEFPVRGEAIVLTVPGSERSYDLTGLKPGTEYVVSIWGVKGGTQSWPLSAIFTT
notes: FN3 domain
- hCD71:HSA [1]: 118
- hCD71 [2]: 1.27e+06

B26: SEQ ID NO 247 (designed binder)
chain: MLPAPKNLVVSRVTEDSARLSWTAPDAAFDSFYIEWTYKGEAIVLTVPGSERSYDLTGLKPGTEYFVGIPGVKGGKSSYPLSAIFTT
notes: FN3 domain
- hCD71:HSA [1]: 17
- hCD71 [2]: 916000

B27: SEQ ID NO 308 (designed binder)
chain: MLPAPKNLVVSEVTEDSARLSWQGVARAFDSFLITYREQIFAGEVIVLTVPGSERSYDLTGLKPGTEYPVWIQGVKGGSPSAPLSAISTT
notes: FN3 domain
- hCD71:HSA [1]: 50
- hCD71 [2]: 609000

B28: SEQ ID NO 291 (designed binder)
chain: MLPAPKNLVVSRVTEDSARLSWTAPDAAFDSFHIEYEEPETEGEAIYLHVPGSERSYDLTGLKPGTEYKVLIRGVKGGSYSIPLQAPFTT
notes: FN3 domain
- hCD71:HSA [1]: 1780
- hCD71 [2]: 3.83e+06

B29: SEQ ID NO 239 (designed binder)
chain: MLPAPKNLVVSRVTEDSARLSWTAPDAAFDSFAITYYEGRWRGEAIVLTVPGSERSYDLTGLKPGTEYGVPIRGVKGGTGSLPLSAIFTT
notes: FN3 domain
- hCD71:HSA [1]: 83
- hCD71 [2]: 419000

B30: SEQ ID NO 297 (designed binder)
chain: MLPAPKNLVVSRVTEDSARLSWTAPDAAFDSFLIPYAETSPSGEAITLFVPGSERSYDLTGLKPGTEYNVVIQGVKGGRPSNPLVAASTT
notes: FN3 domain
- hCD71:HSA [1]: 49
- hCD71 [2]: 2.59e+06

B31: SEQ ID NO 248 (designed binder)
chain: MGSLPAPKNLVVSRVTEDSARLSWTAPDAAFDSFAIPYAEPSPTGEAIVLTVPGSERSYDLTGLKPGTEYPVWIQGVKGGSPSAPLSAEFTT
notes: FN3 domain
- hCD71:HSA [1]: 55
- hCD71 [2]: 832000

B32: SEQ ID NO 266 (designed binder)
chain: MLPAPKNLVVSRVTEDSARLSWTAPDAAFDSFMIRYQEGTRWGEAIVLTVPGSERSYDLTGLKPGTEYIVMIAGVKGGQISLPLSAIFTT
notes: FN3 domain
- hCD71:HSA [1]: 337
- hCD71 [2]: 894000

B33: SEQ ID NO 270 (designed binder)
chain: B32 chain with M33L, G39W, T40Q, I69T, M71H, Q79M, I80L
notes: FN3 domain
- hCD71:HSA [1]: 754
- hCD71 [2]: 1.81e+06

B34: SEQ ID NO 244 (designed binder)
chain: MLPAPKNLVVSRVTEDSARLSWTAPDAAFDSFHIDYSEFHLRGEAIVLTVPGSERSYDLTGLKPGTEYLGIFGVKGGEQSGPLSAIFTT
notes: FN3 domain
- hCD71:HSA [1]: 330
- hCD71 [2]: 545000

B35: SEQ ID NO 221 (designed binder)
chain: MLPAPKNLVVSRVTEDSARLSWTAPDAAFDSFHISYQEVVAEGEAIYLRVPGSERSYDLTGLKPGTEYYVLIHGVKGGYESKPLDASFTT
notes: FN3 domain
- hCD71:HSA [1]: 537
- hCD71 [2]: 1.96e+06

B36: SEQ ID NO 209 (designed binder)
chain: MLPAPKNLVVSRVTEDSARLSWTAPDAAFDSFTIPYIEYVWWGEAIVLTVQGSERSYDLTGLKPGTEYPVTIGGVKGGSRSHPLHAHFTT
notes: FN3 domain
- hCD71:HSA [1]: 57
- hCD71 [2]: 790000
